The text below walks through data of article PMC6661505.

Among the targets are human FGFR3c-Fc (human, UniProt P22607 23-375); mouse FGFR3b-Fc (mouse, UniProt Q61851-2 21-371); human FGFR3b-Fc (human, UniProt P22607-2 23-377); human FGFR2c-His (human, UniProt P21802 22-377); mouse FGFR1c-Fc (mouse, UniProt P16092 22-376); human FGFR1c-His (human, UniProt P11362 22-376); mouse FGFR2c-Fc (mouse, UniProt P21803 22-377); mouse FGFR3c-Fc (mouse, UniProt Q61851 21-369).

What all share (assay): bead flow cytometry
(In general: A flow cytometer gives signals particle by particle.)

One may read the Kd as the concentration at which binding is half-saturated. Read a low Kd as a tighter complex.

Sequence of human FGFR1c-His (P11362 22-376): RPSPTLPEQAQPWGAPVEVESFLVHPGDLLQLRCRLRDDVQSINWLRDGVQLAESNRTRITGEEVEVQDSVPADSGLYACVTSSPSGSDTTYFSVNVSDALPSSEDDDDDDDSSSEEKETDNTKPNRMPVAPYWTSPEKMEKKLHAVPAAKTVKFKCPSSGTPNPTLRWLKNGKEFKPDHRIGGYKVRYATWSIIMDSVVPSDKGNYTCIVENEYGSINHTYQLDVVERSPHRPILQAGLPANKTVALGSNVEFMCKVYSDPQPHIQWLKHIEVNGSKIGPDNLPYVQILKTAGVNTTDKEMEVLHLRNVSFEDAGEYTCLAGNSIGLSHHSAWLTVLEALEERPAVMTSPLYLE
Sequence of mouse FGFR1c-Fc (P16092 22-376): as the sequence (P11362 22-376) above, with S3A, A15V, F22L, A53V, Q68R, V71I, M128R counted along it
Sequence of mouse FGFR2c-Fc (P21803 22-377): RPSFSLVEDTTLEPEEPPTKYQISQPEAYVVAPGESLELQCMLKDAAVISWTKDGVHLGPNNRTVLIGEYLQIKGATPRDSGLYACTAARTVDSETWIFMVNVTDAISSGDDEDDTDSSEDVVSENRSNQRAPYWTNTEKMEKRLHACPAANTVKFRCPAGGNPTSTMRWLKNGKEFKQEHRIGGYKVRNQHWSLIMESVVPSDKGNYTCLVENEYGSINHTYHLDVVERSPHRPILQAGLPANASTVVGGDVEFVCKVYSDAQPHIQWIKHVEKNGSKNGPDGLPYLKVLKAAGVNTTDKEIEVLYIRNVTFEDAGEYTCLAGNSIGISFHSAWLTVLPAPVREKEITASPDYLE
Sequence of human FGFR2c-His (P21802 22-377): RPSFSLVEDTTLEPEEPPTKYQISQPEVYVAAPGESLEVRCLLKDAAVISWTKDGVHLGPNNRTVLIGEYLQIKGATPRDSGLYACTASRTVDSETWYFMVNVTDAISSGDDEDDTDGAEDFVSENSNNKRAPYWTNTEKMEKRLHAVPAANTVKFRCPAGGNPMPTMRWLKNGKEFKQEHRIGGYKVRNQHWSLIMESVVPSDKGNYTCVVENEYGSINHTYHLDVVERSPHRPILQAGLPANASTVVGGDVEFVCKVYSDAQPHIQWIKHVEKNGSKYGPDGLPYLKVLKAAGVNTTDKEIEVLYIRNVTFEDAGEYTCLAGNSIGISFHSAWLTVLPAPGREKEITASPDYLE

Take GCCGAUGGUUUUGUGGCCGUUUGAGGUUCCUACGGC (structured_RNA, 2'-fluoro C and U; 3' inverted dT (not in string)) [iR3]: the equilibrium dissociation constant (Kd) was 55.5 ± 8.4 nM in the data set with human FGFR3c-Fc, roughly 62 nM with mouse FGFR3b-Fc, roughly 48 nM with human FGFR3b-Fc and 36.6 ± 7.1 nM in the data set with mouse FGFR3c-Fc. For the same molecule, the binding result in the data set with human FGFR2c-His, with mouse FGFR1c-Fc, with human FGFR1c-His and in the data set with mouse FGFR2c-Fc was “no binding” throughout.
